US20140050749A1 (PURDUE PHARMA L P, published 2014)
Where no end group is shown, it is not given here. [ ]: non-standard residue; d: D form. Gly(cPent) = N[C@H](C(=O)O)C1CCCC1

B1: E-[c5g]-AGIG-[amv]-LTV (peptide)
peptide: EXAGIGXLTV
modifications: [c5g] (aminocyclopentyl carboxylic acid) at position 2; [amv] at position 7 (abbreviation not defined in the filing)
notes: MART-1 decamer derivative with a double substitution

Tests used:
[1] = target: T1, HLA-A2 (HLA-A0201) MHC class I complex (human); experiment: ITopia soluble class I plate-based stability assay, 37 C
T1 construct: the methods section names HLA-A0201; also called HLA-A201; MHCI
Experimental: (§1) MHCI complexes were dissociated in each test well using stripping buffer, and the place-holder peptide and beta 2 microglobulin were washed away. 100 uM of the test peptide was added to appropriate wells along with additional beta 2 microglobulin and the anti-HLA ABC antibody, and the plates were incubated overnight at 21° C. Plates were washed, and fresh buffer was added to each well. Plates were shifted to 37° C., and the appropriate wells were read at 0, 0.5, 1, 1.5, 2, 4, 6 and 8 hours.

[2] = target: T1, HLA-A2 (HLA-A0201) MHC class I complex; experiment: ITopia soluble class I plate-based stability assay; reference is the native survivin peptide (SEQ ID NO: 31)
Experimental: as §1

| Binder | Half Life of Complex [1] | fold increase in the half life of the HLA-A2 peptide complex compared to the native survivin peptide [2] |
| --- | --- | --- |
| AXGIGILTV ([cpg] (L-cyclopentylglycine) at position 2, MART-1 nonamer derivative) [A-[cpg]-GIGILTV] | > 100 h |  |
| K[Gly(cPent)]RRAIEQL (Survivin 130-138 derivative) [K-[cpg]-RRAIEQL] | 50.6 h | > 20 fold |
| ISTFKNWPF [Native Survivin 19-27 peptide ISTFKNWPF] | 0.24 h |  |
| I[Gly(cPent)]TFKNWPF (Survivin 19-27 derivative) [I-[cpg]-TFKNWPF] | 1.9 h |  |
| KVRRAIEQL [Native Survivin 130-138 peptide KVRRAIEQL] | 1.9 h |  |
| B1 | 11.9 h |  |
